Patent publication US7648964B2, “Use of lacritin in promoting ocular cell survival” (University of Virginia Patent Foundation, priority 2004, dated 2010)

What was measured:
ECM binding ELISA = conditions: 0-30 nM lacritin
Description: (§1) Binding studies were carried out in 96 well plates coated with 10 μg/well of collagen IV, laminin-1, entactin/nidogen-1, collagen I, fibronectin, vitronectin, EGF, heparin or BMS. Wells were washed, blocked (PBS-T), incubated with 0-30 nM lacritin (in PBS-T containing 1% BSA) for 1 hr (4° C.), washed and detected with anti-lacritin antibody (1/1000) by ELISA.

EGF = EGF (Homo sapiens, UniProt P01133); assay: ECM binding ELISA; conditions: 0-30 nM lacritin
Chain of EGF (P01133 971-1023 limits assumed, species assumed): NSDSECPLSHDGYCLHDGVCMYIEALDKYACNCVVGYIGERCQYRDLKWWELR
Description: as §1

fibronectin = fibronectin (Homo sapiens, UniProt P02751); assay: ECM binding ELISA; conditions: 0-30 nM lacritin
Chain of fibronectin (P02751 32-2477, species assumed): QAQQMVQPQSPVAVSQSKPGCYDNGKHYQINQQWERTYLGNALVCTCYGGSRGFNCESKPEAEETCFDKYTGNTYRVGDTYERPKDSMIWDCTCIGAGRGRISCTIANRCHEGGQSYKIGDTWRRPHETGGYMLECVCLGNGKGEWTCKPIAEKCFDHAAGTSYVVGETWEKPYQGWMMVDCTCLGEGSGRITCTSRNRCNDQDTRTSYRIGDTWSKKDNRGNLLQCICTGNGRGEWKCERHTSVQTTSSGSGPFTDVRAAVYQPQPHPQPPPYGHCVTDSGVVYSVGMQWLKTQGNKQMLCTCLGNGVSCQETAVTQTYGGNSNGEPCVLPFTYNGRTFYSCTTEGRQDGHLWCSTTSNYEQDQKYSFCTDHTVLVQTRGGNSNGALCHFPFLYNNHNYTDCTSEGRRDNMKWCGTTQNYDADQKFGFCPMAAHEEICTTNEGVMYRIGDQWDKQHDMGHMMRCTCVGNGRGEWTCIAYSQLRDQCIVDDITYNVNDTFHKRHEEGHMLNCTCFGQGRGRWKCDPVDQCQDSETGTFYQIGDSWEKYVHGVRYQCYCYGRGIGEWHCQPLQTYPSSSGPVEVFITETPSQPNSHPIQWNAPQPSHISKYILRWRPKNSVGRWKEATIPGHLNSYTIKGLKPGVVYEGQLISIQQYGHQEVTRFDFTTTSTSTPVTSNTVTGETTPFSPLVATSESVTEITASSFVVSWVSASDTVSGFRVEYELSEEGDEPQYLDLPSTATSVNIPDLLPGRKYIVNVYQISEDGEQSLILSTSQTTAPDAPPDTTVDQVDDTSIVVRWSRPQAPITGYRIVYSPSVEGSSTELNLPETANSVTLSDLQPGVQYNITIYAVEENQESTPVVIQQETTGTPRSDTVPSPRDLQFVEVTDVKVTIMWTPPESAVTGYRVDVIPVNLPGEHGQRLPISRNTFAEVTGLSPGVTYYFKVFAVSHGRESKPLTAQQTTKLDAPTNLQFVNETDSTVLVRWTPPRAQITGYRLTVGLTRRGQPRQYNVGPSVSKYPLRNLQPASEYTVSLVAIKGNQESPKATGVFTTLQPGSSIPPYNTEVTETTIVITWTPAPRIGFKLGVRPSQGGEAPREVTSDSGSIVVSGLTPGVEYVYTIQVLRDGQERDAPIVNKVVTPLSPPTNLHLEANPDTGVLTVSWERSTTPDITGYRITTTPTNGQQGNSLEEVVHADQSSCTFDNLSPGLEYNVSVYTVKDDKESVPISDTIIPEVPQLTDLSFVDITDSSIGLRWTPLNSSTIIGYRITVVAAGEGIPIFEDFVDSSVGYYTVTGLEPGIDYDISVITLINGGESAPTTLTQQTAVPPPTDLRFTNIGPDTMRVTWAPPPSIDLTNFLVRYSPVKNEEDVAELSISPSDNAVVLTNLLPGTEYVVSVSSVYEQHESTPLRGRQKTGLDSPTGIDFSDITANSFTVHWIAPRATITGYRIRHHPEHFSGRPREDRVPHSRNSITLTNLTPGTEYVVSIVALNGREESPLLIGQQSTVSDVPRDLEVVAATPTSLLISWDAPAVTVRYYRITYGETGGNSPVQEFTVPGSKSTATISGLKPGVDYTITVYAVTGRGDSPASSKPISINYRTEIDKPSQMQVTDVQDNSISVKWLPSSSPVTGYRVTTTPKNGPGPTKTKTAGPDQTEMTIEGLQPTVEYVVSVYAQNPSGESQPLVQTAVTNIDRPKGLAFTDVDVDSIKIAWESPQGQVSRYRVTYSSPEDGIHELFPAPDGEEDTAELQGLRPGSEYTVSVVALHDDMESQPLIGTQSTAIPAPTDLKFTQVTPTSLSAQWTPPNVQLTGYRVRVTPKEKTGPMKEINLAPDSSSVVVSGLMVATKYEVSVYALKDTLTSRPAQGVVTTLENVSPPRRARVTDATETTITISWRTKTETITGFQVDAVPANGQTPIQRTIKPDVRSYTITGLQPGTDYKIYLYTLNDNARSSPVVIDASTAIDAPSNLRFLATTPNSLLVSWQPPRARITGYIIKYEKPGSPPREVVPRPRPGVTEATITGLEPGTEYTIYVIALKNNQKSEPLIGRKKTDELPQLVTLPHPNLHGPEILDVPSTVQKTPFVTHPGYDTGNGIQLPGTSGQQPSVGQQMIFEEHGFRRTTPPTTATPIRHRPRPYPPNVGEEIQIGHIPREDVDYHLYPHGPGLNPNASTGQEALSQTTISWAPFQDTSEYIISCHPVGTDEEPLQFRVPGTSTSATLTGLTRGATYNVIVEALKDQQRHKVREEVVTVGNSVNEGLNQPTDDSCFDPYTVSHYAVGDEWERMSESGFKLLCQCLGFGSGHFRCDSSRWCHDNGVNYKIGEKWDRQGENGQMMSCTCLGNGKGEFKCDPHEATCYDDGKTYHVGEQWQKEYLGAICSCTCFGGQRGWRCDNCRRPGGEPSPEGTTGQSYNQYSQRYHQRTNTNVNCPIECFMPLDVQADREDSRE
Description: as §1

cervical (HeLa) cells = assay: 3H-thymidine uptake mitogenesis assay; assay type: cell-based, human
Description: (§2) For phosphotyrosine blotting and mitogenesis assays, cells in serum-containing media were seeded overnight in 24-well plates at a density of 0.5×10^5 cells/mm^2 corresponding to 20-30% confluency after cell attachment, incubated in serum-free media without supplements for 24 h (phosphotyrosine) or washed with serum-free media without supplements three times (mitogenesis) and incubated with lacritin (1-1000 nM), or positive controls EGF (1.6 nM) and 10% fetal bovine serum, or negative controls bovine serum albumin or no additive in serum-free media without supplements for the indicated times (phosphotyrosine) or 30 h (mitogenesis). For phosphotyrosine assays, cells were extracted in 1% NP40 containing sodium vanadate (2 mg/ml), DTT (5 mg/ml), protease inhibitors, 50 mM HEPES, 100 mM NaCl, and 2 mM EDTA; then separated by 10% SDS PAGE, transferred and blotted. The following antibodies (Cell Signaling Technology, Beverly Mass.) were tested: antiphosphotyrosine antibody (P-Tyr-100), anti-phospho-PKC αβII, anti-PKCα, anti-phospho-PKCδ, anti-phospho-PKC (pan), anti-p44/42 MAPK, anti-phospho-Raf, anti-phospho-SAPK/JNK, anti-phospho-p38 Map kinase, anti-phospho-Raf, anti-phospho-Akt, anti-phospho-CaMKII, anti-phospho-MARCKS, or anti-tubulin (loading control). After washing, bound antibodies were detected with peroxidase-labeled secondary antibody and ECL. With the exception of at least nine proteins in the P-Tyr-100 blot (FIG. 1), none of the effectors tested above appeared to be phospho-activated during lacritin signaling (not shown). For mitogenesis (Hussaini et al., '00), [^3H]-thymidine (2 mCi/ml) was added for the next 6 h. Incorporation was stopped with ice-cold phosphate buffered saline and followed by addition of cold and then room temperature trichloracetic acid (10%) for 10 min each, washing of cells with phosphate buffered saline, solubilization with 1 N sodium hydroxide, neutralization with 1 N hydrochloric acid, addition of scintillation fluid and then quantitation in a scintillation counter. To deplete PKCα in HSG cells, a pool of four PKCα-specific siRNAs (100 nM) were transfected via LipofectAMINE 2000 in Opti-MEMI Reduced Serum Medium (Invitrogen, Grand Island N.Y.) without serum and antibiotics according to manufacturer's instructions. Each of the four siRNAs was also individually transfected. In negative controls, cells were transfected with a pool of four lamin-specific siRNAs (Upstate LLC, Charlottesville Va.; Dharmacon Inc, Lafayette Colo.). Seventy-two hours post-transfection, mitogenesis was assessed by co-addition of 10 […] lacritin and [^3H]-thymidine (2 mCi/ml) (Amersham, Piscataway N.J.) for 24 hrs. PKCα depletion was confirmed by Western blotting.

[1] = system: embryonic kidney (HEK) cells; assay: 3H-thymidine uptake mitogenesis assay; assay type: cell-based, human
Description: as §2

[2] = system: erythroleukemia (K-562) cells; assay: 3H-thymidine uptake mitogenesis assay; assay type: cell-based, human
Description: as §2

[3] = system: fibrosarcoma (HT1080) cells; assay: 3H-thymidine uptake mitogenesis assay; assay type: cell-based, human
Description: as §2

[4] = system: foreskin fibroblast (HS68) cells; assay: 3H-thymidine uptake mitogenesis assay; assay type: cell-based, human
Description: as §2

melanoma (SK-MEL) cells = assay: 3H-thymidine uptake mitogenesis assay; assay type: cell-based, human
Description: as §2

melanoma (WM-164) cells = assay: 3H-thymidine uptake mitogenesis assay; assay type: cell-based, human
Description: as §2

[5] = system: non-invasive breast carcinoma (MCF7) cells; assay: 3H-thymidine uptake mitogenesis assay; assay type: cell-based, human
Description: as §2

B1: lacritin: recombinant human lacritin from E. coli; mature 119 residue fragment (SEQ ID NO:10) of native lacritin SEQ ID NO:4 (protein, listed as Homo sapiens)
chain: EDASSDSTGADPAQEAGTSKPNEEISGPAEPASPPETTTTAQETSAAAVQGTAKVTSSRQELNPLKSIVEKSILLTEQALAKAGKGMHGGVPGGKQFIENGSEFAQKLLKKFSLLKPWA
With B1 the binding to heparin (ECM binding ELISA) was “No binding”, the “binding to EGF” value (EGF) was “No binding” and the binding to fibronectin (fibronectin) was “remarkable avidity”. For the same molecule, the mitogenesis (cervical (HeLa) cells) was “not mitogenic”, the mitogenesis [1] was “mitogenic” and the mitogenesis [2] was “not mitogenic”. The mitogenesis [3] was “not mitogenic”, the mitogenesis [4] was “not mitogenic” and the mitogenesis (melanoma (SK-MEL) cells) was “not mitogenic”. For the same molecule, the mitogenesis (melanoma (WM-164) cells) was “not mitogenic” and the mitogenesis [5] was “not mitogenic”.
